From publication PMC10875768, “Structural basis for antibody recognition of the proximal MUC16 ectodomain” (Journal of Ovarian Research, 2024)
Positions count from the first letter of the chain named. Numbers in names are those of the source.

How the values were obtained:
[1] = target: T1, MBP-MUC16^ecto (maltose binding protein fused to the 26-residue MUC16 ectodomain segment) (Homo sapiens); assay: pull-down; MBP pull-down on amylose resin; MBP-tagged MUC16-target as bait (~20 µg), scFv as prey at 2-fold molar excess; 50 mM Tris-HCl pH 8.0, 400 mM NaCl, 1 mM EDTA, 1 mM DTT, 4 °C, 3 h; three washes; SDS-PAGE; conditions: both partners purified
T1 construct: linker between MBP and the MUC16 segment; Cloned into pMal-C5X (NEB); Only one of the two PDB entries holds this chain; also called MBP-fused MUC16-target; MBP-tagged MUC16-target (wt); source: E. coli BL21-RIL (DE3), purified (amylose resin, Superdex-75); not shown: MBP, N-terminal, kept
T1 chain: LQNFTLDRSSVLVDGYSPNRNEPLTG

[2] = target: T1, MBP-MUC16^ecto (maltose binding protein …); assay: ITC; ITC200, 23 °C; scFv (12.8 µM) in the cell, MUC16 peptide (144 µM) or MBP-MUC16^ecto (130 µM) in the syringe; 50 mM Tris pH 8.0, 400 mM NaCl (the results say pH 7.4); average of three experiments; conditions: both partners purified
[3] = target: T2, commercially synthesized MUC16^ecto peptide (26 residues) (Homo sapiens); assay: as above; conditions: both partners purified
T2 construct: also called synthesized MUC16-target; the synthesized peptide; source: synthetic peptide (commercially synthesized)
T2 chain: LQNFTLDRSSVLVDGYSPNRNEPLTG

[4] = target: T3, native glycosylated MUC16 expressed on cancer cells (OVCAR3, SKBR3) (human (endogenous in OVCAR3 and SKBR3), UniProt Q8WXI7, glycosylated (native)); assay: immunostaining of cells or tissue; Alexa-conjugated scFv on fixed cells; Alexa-350-WGA as membrane marker; OVCAR3 and SKBR3 (MUC16-expressing), HEK293T/17 and SKOV3 as controls; conditions: one partner purified
T3 construct: MUC16 (mucin 16), as expressed on the surface of OVCAR3 and SKBR3 cells; also called Mucin 16; cellular MUC16; source: endogenous, on OVCAR3 and SKBR3 cells

B1: 4H11-scFv with VH double mutations S53A/D106A (scFv, V domains shown)
VH: EVKLQESGGGFVKPGGSLRVSCAASGFTFSSYAMSWVRLAPEMRLEWVATISAAGGYIFYSDSVQGRFTISRDNAKNSLHLQMGSLRSGDTAMYYCARQGFGNYGAYYAMDYWGQGTTVTVSS
VL: DIELTQSPSSLAVSAGERVTMNCKSSQSLLNSRTRKNQLAWYQQKPGQSPELLIYWASTRQSGVPDRFSGSGSGTDFTLTISSVQAEDVAVYYCQQSYNLLTFGPGTKLEIK
notes: as the VH of m1 (hVH2, E1-S123); linker (GGGGS)5; as the VL of m1 (hVL1, D1-R113 = scFv residues 149-261); Made by QuikChange mutagenesis of m1; also called scFv mutant S53A/D106A; source: ExpiCHO-S, transfected (same lentivector as the wild type)
binding result [1]: binds

B2: 4H11-scFv with VL double mutations Y246A/N247A (scFv, V domains shown)
VH: B1 VH with A53S, A106D
VL: B1 VL with Y98A, N99A
notes: as the VH of m1 (hVH2, E1-S123); linker (GGGGS)5; as the VL of m1 (hVL1, D1-R113) with the stated changes. numbers count on: the whole scFv (VL begins at D149); Made by QuikChange mutagenesis of m1; also called scFv mutant Y246A/N247A; source: ExpiCHO-S, transfected (same lentivector as the wild type)
binding result [1]: binds

B3: 4H11-scFv (H2L1), VH-linker (GGGGS)5-VL (scFv, V domains shown)
VH: B1 VH with A53S, A106D
VL: B1 VL
notes: humanized 4H11 VH (hVH2 of H2L1), E1-S123; linker (GGGGS)5, residues 124-148 of the scFv; humanized 4H11 VL (hVL1 of H2L1), D1-R113, which are residues 149-261 of the scFv; N-terminal signal peptide in the construct for secretion; also called h4H11-scFv; H2L1 4H11-scFv
Kd [2]: ~2 nM | Kd [3]: ~1.4 nM

B4: Alexa-fluorescence conjugated 4H11-scFv (scFv, V domains shown)
VH: B1 VH with A53S, A106D
VL: B1 VL
notes: as the VH of m1 (hVH2, E1-S123); linker (GGGGS)5; as the VL of m1 (hVL1, D1-R113 = scFv residues 149-261); also called Alexa-4H11-scFv; Alexa-labeled scFv; source: purified 4H11-scFv labeled with Alexa Fluor 488 carboxylic acid, further purified by Superdex-75
binding result [4]: binds
